Experimental data reported in patent publication US20140193378A1 (UNIVERSITY OF MIAMI, published 2014).
Non-standard residues stand in square brackets, D forms with d. No end group written: not given here. *: point of attachment. Desaminotyrosyl = O=C(CCc1ccc(O)cc1)*; NMeY = CN[C@@H](Cc1ccc(O)cc1)C(=O)O; Agmatine = N=C(N)NCCCCN*; Nle = CCCC[C@H](N)C(=O)O; Orn = NCCC[C@H](N)C(=O)O; dAbu = CC[C@@H](N)C(=O)O; Abu = CC[C@H](N)C(=O)O; Aoc = NCCCCCCCC(=O)O; GABA = NCCCC(=O)O

T1: human GHRH receptor (human pituitary membrane homogenates) (human, UniProt Q02643 23-423)
T1 construct: whole, on cells; Native receptor in human pituitary membrane homogenates, not on intact cells; also called hGHRH receptor
T1 sequence (looked up): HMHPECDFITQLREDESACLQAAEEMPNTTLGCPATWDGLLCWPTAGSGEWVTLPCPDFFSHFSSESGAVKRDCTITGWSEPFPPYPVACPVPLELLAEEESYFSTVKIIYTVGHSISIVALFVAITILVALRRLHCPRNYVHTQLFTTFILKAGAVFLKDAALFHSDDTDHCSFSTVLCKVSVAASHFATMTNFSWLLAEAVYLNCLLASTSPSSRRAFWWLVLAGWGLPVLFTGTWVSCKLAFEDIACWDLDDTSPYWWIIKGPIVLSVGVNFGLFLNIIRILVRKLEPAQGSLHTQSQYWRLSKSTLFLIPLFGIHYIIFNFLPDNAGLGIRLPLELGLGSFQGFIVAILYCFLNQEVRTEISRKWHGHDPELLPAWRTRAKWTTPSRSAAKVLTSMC

T2: human GHRH receptor (human pituitary membrane homogenates) (human), Q02643
T2 chain: T1 sequence (looked up)

B1: P-21303 [N-Me-Tyr^1, D-Ala^2, Orn^12, Abu^15, Orn^21, Nle^27, Asp^28, Amc^30]hGHRH(1-30)NH2 (peptide)
peptide: [NMeY][dA]DAIFTNSYR[Orn]VL[Abu]QLSAR[Orn]LLQDI[Nle]DR[Aoc]-NH2
modifications: N-terminus assumed
SMILES: CCCC[C@H](NC(=O)[C@@H](NC(=O)[C@H](CC(=O)O)NC(=O)[C@H](CCC(N)=O)NC(=O)[C@H](CC(C)C)NC(=O)[C@H](CC(C)C)NC(=O)[C@H](CCCN)NC(=O)[C@H](CCCNC(=N)N)NC(=O)[C@H](C)NC(=O)[C@H](CO)NC(=O)[C@H](CC(C)C)NC(=O)[C@H](CCC(N)=O)NC(=O)[C@H](CC)NC(=O)[C@H](CC(C)C)NC(=O)[C@@H](NC(=O)[C@H](CCCN)NC(=O)[C@H](CCCNC(=N)N)NC(=O)[C@H](Cc1ccc(O)cc1)NC(=O)[C@H](CO)NC(=O)[C@H](CC(N)=O)NC(=O)[C@@H](NC(=O)[C@H](Cc1ccccc1)NC(=O)[C@@H](NC(=O)[C@H](C)NC(=O)[C@H](CC(=O)O)NC(=O)[C@@H](C)NC(=O)[C@H](Cc1ccc(O)cc1)NC)[C@@H](C)CC)[C@@H](C)O)C(C)C)[C@@H](C)CC)C(=O)N[C@@H](CC(=O)O)C(=O)N[C@@H](CCCNC(=N)N)C(=O)NCCCCCCCC(N)=O
notes: also called Peptide 21303
B2: P-21300 [Dat^1, D-Ala^2, Orn^12, Abu^15, Orn^21, Nle^27, Asp^28, Amc^30]hGHRH(1-30)NH2 (peptide)
peptide: [Desaminotyrosyl][dA]DAIFTNSYR[Orn]VL[Abu]QLSAR[Orn]LLQDI[Nle]DR[Aoc]-NH2
SMILES: CCCC[C@H](NC(=O)[C@@H](NC(=O)[C@H](CC(=O)O)NC(=O)[C@H](CCC(N)=O)NC(=O)[C@H](CC(C)C)NC(=O)[C@H](CC(C)C)NC(=O)[C@H](CCCN)NC(=O)[C@H](CCCNC(=N)N)NC(=O)[C@H](C)NC(=O)[C@H](CO)NC(=O)[C@H](CC(C)C)NC(=O)[C@H](CCC(N)=O)NC(=O)[C@H](CC)NC(=O)[C@H](CC(C)C)NC(=O)[C@@H](NC(=O)[C@H](CCCN)NC(=O)[C@H](CCCNC(=N)N)NC(=O)[C@H](Cc1ccc(O)cc1)NC(=O)[C@H](CO)NC(=O)[C@H](CC(N)=O)NC(=O)[C@@H](NC(=O)[C@H](Cc1ccccc1)NC(=O)[C@@H](NC(=O)[C@H](C)NC(=O)[C@H](CC(=O)O)NC(=O)[C@@H](C)NC(=O)CCc1ccc(O)cc1)[C@@H](C)CC)[C@@H](C)O)C(C)C)[C@@H](C)CC)C(=O)N[C@@H](CC(=O)O)C(=O)N[C@@H](CCCNC(=N)N)C(=O)NCCCCCCCC(N)=O
notes: also called Peptide 21300
B3: P-20361 [N-Me-Tyr^1, D-Ala^2, Gln^8, Orn^12, Abu^15, Orn^21, Nle^27, Asp^28, Agm^29]hGHRH(1-29)NH2 (peptide)
peptide: [NMeY][dA]DAIFTQSYR[Orn]VL[Abu]QLSAR[Orn]LLQDI[Nle]D[Agmatine]
notes: also called Peptide 20361
B4: P-20351 [Ac-N-Me-Tyr^1, D-Ala^2, Gln^8, Orn^12, Abu^15, Orn^21, Nle^27, Asp^28, Agm^29]hGHRH(1-29)NH2 (peptide)
peptide: Ac-[NMeY][dA]DAIFTQSYR[Orn]VL[Abu]QLSAR[Orn]LLQDI[Nle]D[Agmatine]
SMILES: CCCC[C@H](NC(=O)[C@@H](NC(=O)[C@H](CC(=O)O)NC(=O)[C@H](CCC(N)=O)NC(=O)[C@H](CC(C)C)NC(=O)[C@H](CC(C)C)NC(=O)[C@H](CCCN)NC(=O)[C@H](CCCNC(=N)N)NC(=O)[C@H](C)NC(=O)[C@H](CO)NC(=O)[C@H](CC(C)C)NC(=O)[C@H](CCC(N)=O)NC(=O)[C@H](CC)NC(=O)[C@H](CC(C)C)NC(=O)[C@@H](NC(=O)[C@H](CCCN)NC(=O)[C@H](CCCNC(=N)N)NC(=O)[C@H](Cc1ccc(O)cc1)NC(=O)[C@H](CO)NC(=O)[C@H](CCC(N)=O)NC(=O)[C@@H](NC(=O)[C@H](Cc1ccccc1)NC(=O)[C@@H](NC(=O)[C@H](C)NC(=O)[C@H](CC(=O)O)NC(=O)[C@@H](C)NC(=O)[C@H](Cc1ccc(O)cc1)N(C)C(C)=O)[C@@H](C)CC)[C@@H](C)O)C(C)C)[C@@H](C)CC)C(=O)N[C@@H](CC(=O)O)C(=O)NCCCCNC(=N)N
notes: also called Peptide 20351
B5: P-25504 [Dat^1, D-Abu^2, Orn^12, Abu^15, Orn^21, Nle^27, Gab^30]hGHRH(1-30)NH2 (peptide)
peptide: [Desaminotyrosyl][dAbu]DAIFTNSYR[Orn]VL[Abu]QLSAR[Orn]LLQDI[Nle]SR[GABA]-NH2
SMILES: CCCC[C@H](NC(=O)[C@@H](NC(=O)[C@H](CC(=O)O)NC(=O)[C@H](CCC(N)=O)NC(=O)[C@H](CC(C)C)NC(=O)[C@H](CC(C)C)NC(=O)[C@H](CCCN)NC(=O)[C@H](CCCNC(=N)N)NC(=O)[C@H](C)NC(=O)[C@H](CO)NC(=O)[C@H](CC(C)C)NC(=O)[C@H](CCC(N)=O)NC(=O)[C@H](CC)NC(=O)[C@H](CC(C)C)NC(=O)[C@@H](NC(=O)[C@H](CCCN)NC(=O)[C@H](CCCNC(=N)N)NC(=O)[C@H](Cc1ccc(O)cc1)NC(=O)[C@H](CO)NC(=O)[C@H](CC(N)=O)NC(=O)[C@@H](NC(=O)[C@H](Cc1ccccc1)NC(=O)[C@@H](NC(=O)[C@H](C)NC(=O)[C@H](CC(=O)O)NC(=O)[C@@H](CC)NC(=O)CCc1ccc(O)cc1)[C@@H](C)CC)[C@@H](C)O)C(C)C)[C@@H](C)CC)C(=O)N[C@@H](CO)C(=O)N[C@@H](CCCNC(=N)N)C(=O)NCCCC(N)=O
notes: also called Peptide 25504
B6: P-25503 [N-Me-Tyr^1, Abu^2, Orn^12, Abu^15, Orn^21, Nle^27, Gab^30]hGHRH(1-30)NH2 (peptide)
chain: [NMeY][Abu]DAIFTNSYR[Orn]VL[Abu]QLSAR[Orn]LLQDI[Nle]SR[GABA]-NH2
modifications: N-terminus assumed
SMILES: CCCC[C@H](NC(=O)[C@@H](NC(=O)[C@H](CC(=O)O)NC(=O)[C@H](CCC(N)=O)NC(=O)[C@H](CC(C)C)NC(=O)[C@H](CC(C)C)NC(=O)[C@H](CCCN)NC(=O)[C@H](CCCNC(=N)N)NC(=O)[C@H](C)NC(=O)[C@H](CO)NC(=O)[C@H](CC(C)C)NC(=O)[C@H](CCC(N)=O)NC(=O)[C@H](CC)NC(=O)[C@H](CC(C)C)NC(=O)[C@@H](NC(=O)[C@H](CCCN)NC(=O)[C@H](CCCNC(=N)N)NC(=O)[C@H](Cc1ccc(O)cc1)NC(=O)[C@H](CO)NC(=O)[C@H](CC(N)=O)NC(=O)[C@@H](NC(=O)[C@H](Cc1ccccc1)NC(=O)[C@@H](NC(=O)[C@H](C)NC(=O)[C@H](CC(=O)O)NC(=O)[C@H](CC)NC(=O)[C@H](Cc1ccc(O)cc1)NC)[C@@H](C)CC)[C@@H](C)O)C(C)C)[C@@H](C)CC)C(=O)N[C@@H](CO)C(=O)N[C@@H](CCCNC(=N)N)C(=O)NCCCC(N)=O
B7: P-29703 [N-Me-Tyr^1, Gln^8, Orn^12, Abu^15, Orn^21, Nle^27, Gln-Gab^30]hGHRH(1-30)NH2 (peptide)
chain: [NMeY]ADAIFTQSYR[Orn]VL[Abu]QLSAR[Orn]LLQDI[Nle]SRQ[GABA]-NH2
modifications: N-terminus assumed
SMILES: CCCC[C@H](NC(=O)[C@@H](NC(=O)[C@H](CC(=O)O)NC(=O)[C@H](CCC(N)=O)NC(=O)[C@H](CC(C)C)NC(=O)[C@H](CC(C)C)NC(=O)[C@H](CCCN)NC(=O)[C@H](CCCNC(=N)N)NC(=O)[C@H](C)NC(=O)[C@H](CO)NC(=O)[C@H](CC(C)C)NC(=O)[C@H](CCC(N)=O)NC(=O)[C@H](CC)NC(=O)[C@H](CC(C)C)NC(=O)[C@@H](NC(=O)[C@H](CCCN)NC(=O)[C@H](CCCNC(=N)N)NC(=O)[C@H](Cc1ccc(O)cc1)NC(=O)[C@H](CO)NC(=O)[C@H](CCC(N)=O)NC(=O)[C@@H](NC(=O)[C@H](Cc1ccccc1)NC(=O)[C@@H](NC(=O)[C@H](C)NC(=O)[C@H](CC(=O)O)NC(=O)[C@H](C)NC(=O)[C@H](Cc1ccc(O)cc1)NC)[C@@H](C)CC)[C@@H](C)O)C(C)C)[C@@H](C)CC)C(=O)N[C@@H](CO)C(=O)N[C@@H](CCCNC(=N)N)C(=O)N[C@@H](CCC(N)=O)C(=O)NCCCC(N)=O
B8: P-27415 [N-Me-Tyr^1, Orn^12, Abu^15, Orn^21, Nle^27, Gab^30]hGHRH(1-30)NH-CH3 (peptide)
chain: [NMeY]ADAIFTNSYR[Orn]VL[Abu]QLSAR[Orn]LLQDI[Nle]SR[GABA]-NHMe
B9: P-27405 [N-Me-Tyr^1, Gln^8, Orn^12, Abu^15, Orn^21, Nle^27]hGHRH(1-29)NH-CH3 (peptide)
chain: [NMeY]ADAIFTQSYR[Orn]VL[Abu]QLSAR[Orn]LLQDI[Nle]SR-NHMe
B10: P-21301 [N-Me-Tyr^1, Orn^12, Abu^15, Orn^21, Nle^27, Asp^28, Amc^30]hGHRH(1-30)NH2 (peptide)
chain: [NMeY]ADAIFTNSYR[Orn]VL[Abu]QLSAR[Orn]LLQDI[Nle]DR[Aoc]-NH2
modifications: N-terminus assumed
SMILES: CCCC[C@H](NC(=O)[C@@H](NC(=O)[C@H](CC(=O)O)NC(=O)[C@H](CCC(N)=O)NC(=O)[C@H](CC(C)C)NC(=O)[C@H](CC(C)C)NC(=O)[C@H](CCCN)NC(=O)[C@H](CCCNC(=N)N)NC(=O)[C@H](C)NC(=O)[C@H](CO)NC(=O)[C@H](CC(C)C)NC(=O)[C@H](CCC(N)=O)NC(=O)[C@H](CC)NC(=O)[C@H](CC(C)C)NC(=O)[C@@H](NC(=O)[C@H](CCCN)NC(=O)[C@H](CCCNC(=N)N)NC(=O)[C@H](Cc1ccc(O)cc1)NC(=O)[C@H](CO)NC(=O)[C@H](CC(N)=O)NC(=O)[C@@H](NC(=O)[C@H](Cc1ccccc1)NC(=O)[C@@H](NC(=O)[C@H](C)NC(=O)[C@H](CC(=O)O)NC(=O)[C@H](C)NC(=O)[C@H](Cc1ccc(O)cc1)NC)[C@@H](C)CC)[C@@H](C)O)C(C)C)[C@@H](C)CC)C(=O)N[C@@H](CC(=O)O)C(=O)N[C@@H](CCCNC(=N)N)C(=O)NCCCCCCCC(N)=O

What follows are binders tested against T1, human GHRH receptor (human pituitary …) (assay: radioligand competition vs 125I-JV-1-42 (0.2 nM), human pituitary membranes).
Source text: Normal human pituitaries were purchased from the National Hormone and Peptide Program (A. F. Parlow, Los Angeles, County Harbor-UCLA Medical Center, Torrance, Calif.).

Row | Relative affinity (Binding potency) vs JI-38 [fold] | Binder
1 | 2.32 | B1
2 | 1.2 | B2
3 | 5.3 | B3
4 | 1.26 | B4
5 | 3.02 | B5

Target: T2, human GHRH receptor (human pituitary …)
Assay: as above

Row | IC50 [nM] | Relative affinity (Binding potency) vs JI-38 [fold] | Binder
6 | 1.18 | 3.67 | B6
7 |  | 3.57 | B7
8 | 3.02 | 1.44 | B8
9 | 1.08 | 4.03 | B9
10 | 2.99 | 1.45 | B10
